Data reported in patent publication JP2016028048A (dated 2016).

T1: ヒト組織因子経路インヒビター (human TFPI) (human, UniProt P10646 29-304, limits assumed)
T1 construct: Coated on Maxisorp plates (ELISA) or amine-coupled to a CM5 chip (Biacore); also called ヒトTFPI; hTFPI
T1 sequence (looked up): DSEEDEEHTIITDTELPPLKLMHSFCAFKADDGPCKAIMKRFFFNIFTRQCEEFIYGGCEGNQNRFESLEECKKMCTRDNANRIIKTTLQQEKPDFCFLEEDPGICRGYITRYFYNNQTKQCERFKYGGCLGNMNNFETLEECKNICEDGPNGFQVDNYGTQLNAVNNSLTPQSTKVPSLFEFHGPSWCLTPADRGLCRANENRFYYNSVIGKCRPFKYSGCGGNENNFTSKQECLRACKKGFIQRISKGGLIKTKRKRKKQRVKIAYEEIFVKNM

B1: TP-3G1 (Fab, V domains shown)
VH: QVQLQQSGPGLVKPSQTLSLTCAISGDSVSSNSGGWGWIRQSPGRGLEWLGLIYYRSKWYNAYAVSVKSRITINPDTSKNQFSLQLNSVTPEDTAVYYCARYLGSNFYVYSDVWGQGTLVTVSS
VL: DIQMTQSPSSLSASVGDRVTITCRASQGISSYLHWYQQKPGKAPKLLIYGASTLQSGVPSRFSGSGSGTDFTLTISSLQPEDFATYYCQQQNGYPFTFGQGTKVEIKR
notes: Human Fab (HuCal Gold), made in E. coli TG1
B2: TP-3H2 (Fab, V domains shown)
VH: QVQLVESGGGLVQPGGSLRLSCAASGFTFNSYYMSWVRQAPGKGLEWVSNISSSGSNTNYADSVKGRFTISRDNSKNTLYLQMNSLRAEDTAVYYCARVHYGFDFWGQGTLVTVSS
VL: DIELTQPPSVSVAPGQTARISCSGDKLGKYYAYWYQQKPGQAPVLVIYGDSKRPSGIPERFSGSNSGNTATLTISGTQAEDEADYYCSSAAFGSTVFGGGTKLTVLG
notes: as for B1
B3: TP-3C1 (Fab, V domains shown)
VH: QVQLVESGGGLVQPGGSLRLSCAASGFTFSSYSMHWVRQAPGKGLEWVSGISYSSSFTYYADSVKGRFTISRDNSKNTLYLQMNSLRAEDTAVYYCARALGGGVDYWGQGTLVTVSS
VL: DIALTQPASVSGSPGQSITISCTGTSSDLGGFNTVSWYQQHPGKAPKLMIYSVSSRPSGVSNRFSGSKSGNTASLTISGLQAEDEADYYCQSYDLNNLVFGGGTKLTVLG
notes: Human Fab (HuCal Gold), made in E. coli TG1; VL is the same entry as TP-2G9, VH the same entry as TP-3F2 (so in the source)
B4: TP-3F2 (Fab, V domains shown)
VH: QVQLVESGGGLVQPGGSLRLSCAASGFTFSSYSMHWVRQAPGKGLEWVSGISYSSSFTYYADSVKGRFTISRDNSKNTLYLQMNSLRAEDTAVYYCARALGGGVDYWGQGTLVTVSS
VL: DIELTQPPSVSVAPGQTARISCSGDNLPSKSVYWYQQKPGQAPVLVIYGDNNRPSGIPERFSGSNSGNTATLTISGTQAEDEADYYCQSWTSRPMVVFGGGTKLTVLG
notes: as for B1
B5: TP-3C2 (Fab, V domains shown)
VH: QVQLQQSGPGLVKPSQTLSLTCAISGDSVSSSSAAWSWIRQSPGRGLEWLGMIYYRSKWYNHYAVSVKSRITINPDTSKNQFSLQLNSVTPEDTAVYYCARGGSGVMDVWGQGTLVTVSS
VL: DIQMTQSPSSLSASVGDRVTITCRASQSITNYLNWYQQKPGKAPKLLIYDVSNLQSGVPSRFSGSGSGTDFTLTISSLQPEDFAVYYCQQYSGYPLTFGQGTKVEIKR
notes: as for B1
B6: TP-3C3 (Fab, V domains shown)
VH: QVQLQQSGPGLVKPSQTLSLTCAISGDSVSSNSAAWGWIRQSPGRGLEWLGVIYYRSKWYNDYAVSVKSRITINPDTSKNQFSLQLNSVTPEDTAVYYCARARAKKSGGFDYWGQGTLVTVSS
VL: DIQMTQSPSSLSASVGDRVTITCRASQSINPYLNWYQQKPGKAPKLLIYAASNLQSGVPSRFSGSGSGTDFTLTISSLQPEDFAVYYCQQLDNRSITFGQGTKVEIKR
notes: as for B1
B7: TP-3G3 (Fab, V domains shown)
VH: QVQLVESGGGLVQPGGSLRLSCAASGFTFSSYSMSWVRQAPGKGLEWVSSISSSSSNTYYGDSVKGRFTISRDNSKNTLYLQMNSLRAEDTAVYYCARMHYKGMDIWGQGTLVTVSS
VL: DIQMTQSPSSLSASVGDRVTITCRASQNIHSHLNWYQQKPGKAPKLLIYDASSLQSGVPSRFSGSGSGTDFTLTISSLQPEDFAVYYCQQYYDYPLTFGQGTKVEIKR
notes: as for B1
B8: TP-2A8 (Fab, V domains shown)
VH: QVQLVESGGGLVQPGGSLRLSCAASGFTFRSYGMSWVRQAPGKGLEWVSSIRGSSSSTYYADSVKGRFTISRDNSKNTLYLQMNSLRAEDTAVYYCARKYRYWFDYWGQGTLVTVSS
VL: DIELTQPPSVSVAPGQTARISCSGDNLRNYYAHWYQQKPGQAPVVVIYYDNNRPSGIPERFSGSNSGNTATLTISGTQAEDEADYYCQSWDDGVPVFGGGTKLTVLG
notes: Human Fab (HuCal Gold), made in E. coli TG1; also called Fab-2A8; TP-2A8-Fab
B9: TP-3F1 (Fab, V domains shown)
VH: QVQLVQSGAEVKKPGESLKISCKGSGYSFTDYWIGWVRQMPGKGLEWMGIIQPSDSDTNYSPSFQGQVTISADKSISTAYLQWSSLKASDTAMYYCARFMWWGKYDSGFDVWGQGTLVTVSS
VL: DIELTQPPSVSVAPGQTARISCSGDNIGSYFASWYQQKPGQAPVLVIYDDSNRPSGIPERFSGSNSGNTATLTISGTQAEDEADYYCEGSNVFGGGTKLTVLG
notes: as for B1
B10: TP-2B3 (Fab, V domains shown)
VH: QVQLQQSGPGLVKPSQTLSLTCAISGDSVSSNSAAWGWIRQSPGRGLEWLGMIYYRSKWYNSYAVSVKSRITINPDTSKNQFSLQLNSVTPEDTAVYYCARTMSKYGGPGMDVWGQGTLVTVSS
VL: DIVLTQSPATLSLSPGERATLSCRASQNIGSNYLAWYQQKPGQAPRLLIYGASTRATGVPARFNGSGSGTDFTLTISSLEPEDFAVYYCQQLNSIPVTFGQGTKVEIKR
notes: as for B1
B11: TP-2A6 (Fab, V domains shown)
VH: QVQLVESGGGLVQPGGSLRLSCAASGFTFSRYAMSWVRQAPGKGLEWVSSIISSSSETYYADSVKGRFTISRDNSKNTLYLQMNSLRAEDTAVYYCARLMGYGHYYPFDYWGQGTLVTVSS
VL: DIELTQPPSVSVAPGQTARISCSGDKIGSKYVYWYQQKPGQAPVLVIYDSNRPSGIPERFSGSNSGNTATLTISGTQAEDEADYYCASYDSIYSYWVFGGGTKLTVLG
notes: as for B1
B12: TP-2A10 (Fab, V domains shown)
VH: QVQLVESGGGLVQPGGSLRLSCAASGFTFTSYSMNWVRQAPGKGLEWVSAISYTGSNTHYADSVKGRFTISRDNSKNTLYLQMNSLRAEDTAVYYCARAFLGYKESYFDIWGQGTLVTVSS
VL: DIELTQPPSVSVAPGQTARISCSGDKLGKKYVHWYQQKPGQAPVLVIYGDDKRPSGIPERFSGSNSGNTATLTISGTQAEDEADYYCQAWGSISRFVFGGGTKLTVLG
notes: as for B1
B13: TP-2B4 (Fab, V domains shown)
VH: QVQLVESGGGLVQPGGSLRLSCAASGFTFSNYSMTWVRQAPGKGLEWVSGISYNGSNTYYADSVKGRFTISRDNSKNTLYLQMNSLRAEDTAVYYCARIYYMNLLAGWGQGTLVTVSS
VL: DIELTQPPSVSVAPGQTARISCSGDALGTYYAYWYQQKPGQAPVLVIYGDMNRPSGIPERFSGSNSGNTATLTISGTQAEDEADYYCQSYDAGVKPAVFGGGTKLTVLG
notes: as for B1
B14: TP-3A4 (Fab, V domains shown)
VH: QVQLVESGGGLVQPGGSLRLSCAASGFTFSSYWMHWVRQAPGKGLEWVSSISYDSSNTYYADSVKGRFTISRDNSKNTLYLQMNSLRAEDTAVYYCARYGGMDYWGQGTLVTVSS
VL: DIELTQPPSVSVAPGQTARISCSGDNLRDKYASWYQQKPGQAPVLVIYSKSERPSGIPERFSGSNSGNTATLTISGTQAEDEADYYCSSYTLNPNLNYVFGGGTKLTVLG
notes: as for B1
B15: TP-3B3 (Fab, V domains shown)
VH: QVQLVESGGGLVQPGGSLRLSCAASGFTFSSYGMHWVRQAPGKGLEWVSNISYMGSNTNYADSVKGRFTISRDNSKNTLYLQMNSLRAEDTAVYYCARGLFPGYFDYWGQGTLVTVSS
VL: DIELTQPASVSVAPGQTARISCSGDNLRSKYAHWYQQKPGQAPVLVIYGDNNRPSGIPERFSGSNSGNTATLTISGTQAEDEADYYCSAYAMGSSPVFGGGTKLTVLG
notes: as for B1
B16: TP-3E1 (Fab, V domains shown)
VH: QVQLVESGGGLVQPGGSLRLSCAASGFTFSNYAMTWVRQAPGKGLEWVSVISSVGSNTYYADSVKGRFTISRDNSKNTLYLQMNSLRAEDTAVYYCARPTKAGRTWWWGPYMDVWGQGTLVTVSS
VL: DIELTQPPSVSVAPGQTARISCSGDNIGSYYAYWYQQKPGQAPVLVIYDDSNRPSGIPERFSGSNSGNTATLTISGTQAEDEADYYCQSYDSTGLLVFGGGTKLTVLG
notes: as for B1
B17: TP-4A7 (Fab, V domains shown)
VH: QVQLVESGGGLVQPGGSLRLSCAASGFTFRNYAMNWVRQAPGKGLEWVSVISGSSSYTYYADSVKGRFTISRDNSKNTLYLQMNSLRAEDTAVYYCARADLPYMVFDYWGQGTLVTVSS
VL: DIELTQPPSVSVAPGQTARISCSGDALGSKFAHWYQQKPGQAPVLVIYDDSERPSGIPERFSGSNSGNTATLTISGTQAEDEADYYCQAYDSGLLYVFGGGTKLTVLG
notes: as for B1
B18: TP-3D3 (Fab, V domains shown)
VH: QVQLVESGGGLVQPGGSLRLSCAASGFTFSSYASWVRQAPGKGLEWVSGISGDGSNTHYADSVKGRFTISRDNSKNTLYLQMNSLRAEDTAVYYCARYDNFYFDVWGQGTLVTVSS
VL: DIELTQPPSVSVAPGQTARISCSGDSLGSKFAHWYQQKPGQAPVLVIYDDSNRPSGIPERFSGSNSGNTATLTISGTQAEDEADYYCSTYTSRSHSYVFGGGTKLTVLG
notes: as for B1
B19: TP-2B1 (Fab, V domains shown)
VH: QVQLVESGGGLVQPGGSLRLSCAASGFTFSSYSMSWVRQASGKGLEWVSSIKGSGSNTYYADSVKGRFTISRDNSKNTLYLQMNSLRAEDTAVYYCARNGGLIDVWGQGTLVTVSS
VL: DIELTQPPSVSVAPGQTARISCSGDNLGNKYAHWYQQKPGQAPVLVIYYDNKRPSGIPERFSGSNSGNTATLTISGTQAEDEADYYCQSWTPGSNTMVFGGGTRLTVLG
notes: as for B1
B20: TP-4B7 (Fab, V domains shown)
VH: QVQLQQSGPGLVKPSQTLSLTCAISGDSVSSNSAAWSWIRQSPGRGLEWLGIIYKRSKWYNDYAVSVKSRITINPDTSKNQFSLQLNSVTPEDTAVYYCARWHSDKHWGFDYWGQGTLVTVSS
VL: DIVMTQSPLSLPVTPGEPASISCRSSQSLVFSDGNTYLNWYLQKPGQSPQLLIYKGSNRASGVPDRFSGSGSGTDFTLKISRVEAEDVGVYYCQQYDSYPLTFGQGTKVEIKR
notes: as for B1

Each binder was assayed against T1, ヒト組織因子経路インヒビター (human TFPI) (assay: ELISA, Fab in bacterial lysate on human TFPI-coated plate).

Binding result, binds:
B1, B2, B3, B4, B5, B6, B7, B8, B9, B10, B11, B12, B13, B14, B15, B16, B17, B18, B19, B20
